# Experimental data: US20220396620A1 (Takeda / Millennium, published 2022)
# Target: T1, human cannabinoid receptor type 1 (CB1) (human, UniProt P21554 1-472)
# T1 construct: DiscoverX cAMP Hunter CHO-K1 CNR1 Gi cells for cAMP and pERK assays; also called huCB1; huCB-1
# Test: flow cytometry, single point at 30 ug/mL antibody on CHO-huCB-1 cells
# T1 sequence (P21554 whole entry): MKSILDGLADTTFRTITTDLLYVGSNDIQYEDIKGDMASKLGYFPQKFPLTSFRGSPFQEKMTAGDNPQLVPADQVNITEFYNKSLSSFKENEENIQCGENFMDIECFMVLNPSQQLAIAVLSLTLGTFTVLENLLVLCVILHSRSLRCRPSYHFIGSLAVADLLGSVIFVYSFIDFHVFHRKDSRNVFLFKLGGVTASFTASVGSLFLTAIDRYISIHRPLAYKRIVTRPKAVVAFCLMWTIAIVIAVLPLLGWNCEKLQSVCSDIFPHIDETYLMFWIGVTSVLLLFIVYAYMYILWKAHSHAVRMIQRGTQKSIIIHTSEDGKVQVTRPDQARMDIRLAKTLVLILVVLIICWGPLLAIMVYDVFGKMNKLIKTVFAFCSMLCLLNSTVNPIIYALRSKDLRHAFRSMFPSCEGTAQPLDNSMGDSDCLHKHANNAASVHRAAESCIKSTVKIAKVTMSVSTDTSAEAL
row,binding result,Binder
1,binds,"M5-H1 humanized anti-CB1 antibody (antibody, human IgG1, kappa, L234A L235A, V domains shown) VH: QVQLVQSGAEVVKPGASVKISCKASGYEFSYYWMNWVKQAPGQGHEWIGQIYPGDGDTNYNGKFKGKATLTADKSTSTAYMELSSLRSEDTAVYFCARGREAAWFAYWGQGTLVTVSS VL: DIQLTQSPSSLSVSVGDRATITCRASQSVSSFRYSYLHWYQQKPGKAPKLLIKYASNLESGVPSRFSGSGSGTDFTLTISSVQPEDFATYFCQHSWEIPFTFGQGTKLEIKR"
2,binds,"M5-H2 humanized anti-CB1 antibody (antibody, human IgG1, kappa, L234A L235A, V domains shown) VH: QVQLVQSGAEVKKPGASVKVSCKASGYEFSYYWMNWVRQAPGQGHEWIGQIYPGDGDTNYNQKFQGRVTLTADTSTSTAYMELSSLRSEDTAVYFCARGREAAWFAYWGQGTLVTVSS VL: DIQLTQSPSSLSVSVGDRATITCRASQSVSSFRYSYLHWYQQKPGKAPKLLIKYASNLESGVPSRFSGSGSGTDFTLTISSVQPEDFATYFCQHSWEIPFTFGQGTKLEIKR"
3,binds,"M7-H3 humanized anti-CB1 antibody (antibody, human IgG1, kappa, L234A L235A, V domains shown) VH: QVQLVQSGAEVKKPGASVKVSCKASSYTFTRYWMNWVKQAPGQGLEWIGMIDPYDSETHYNQKFQGRATLTVDTSTSTVYMELSSLRSEDTAVYFCARSQPRYYAMDYWGQGTTVTVSS VL: DIQMTQSPSSLSASLGDRVTLTCRASQEISGFLSWLQLKPGKTIKRLIYAASSLDSGVPSRFSGSWSGTDYTLTISSLQPEDFADYYCLQYSSYPYTFGGGTKLEIKR"
4,binds,"M7-H2 humanized anti-CB1 antibody (antibody, human IgG1, kappa, L234A L235A) heavy: not shown light: DIQMTQSPSSLSASVGDRVTLTCRASQEISGFLSWLQLKPGKAIKRLIYAASSLDSGVPSRFSGSWSGTDYTLTISSLQPEDFADYYCLQYSSYPYTFGGGTKVEIKRTVAAPSVFIFPPSDEQLKSGTASVVCLLNNFYPREAKVQWKVDNALQSGNSQESVTEQDSKDSTYSLSSTLTLSKADYEKHKVYACEVTHQGLSSPVTKSFNRGEC"

# Target: T1, human cannabinoid receptor type 1 (CB1)
# Test: FACS on CHO-huCB-1 cells, single concentration 30 ug/mL
row,binding result,Binder
1,binds,"M7-H6 humanized anti-CB1 antibody (antibody, human IgG1, kappa, V domains shown) VH: QVQLVQSGAEVKKPGASVKVSCKASSYTFTRYWMNWVRQAPGQGLEWMGMIDPYDSETHYNQKFKDRVTMTRDTSTSTVYMELSSLRSEDTAVYYCARSQPRYYAMDYWGQGTSVTVSS VL: DIQMTQSPSSLSASVGDRVTITCRASQEISGFLAWFQQKPGKAPKSLIYAASSLQSGVPSRFSGSGSGTDFTLTISSLQPEDFATYYCQQYSSYPYTFGGGTKLEIKR"
2,binds,"M7-H5 humanized anti-CB1 antibody (antibody, human IgG1, kappa, L234A L235A, V domains shown) VH: QVQLVQSGAEVVKPGASVKLSCKASSYTFTRYWMNWVKQAPGQGLEWIGMIDPYDSETHYNQKFKDKAILTVDKSTSTAYMELSTLRSEDTAVYFCARSQPRYYAMDYWGQGTSVTVSS VL: DIQMTQSPSSLSASLGDRVTLTCRASQEISGFLSWLQLRPDGTIKRLIYAASSLDSGVPSRFRGSWSGTDYTLTISSLQSEDFADYYCLQYSSYPYTFGGGTKLEIKR"
